From US20120077731A1 (Ablynx, published 2012) come the findings set out here.

For assay [1], the target named is T1, Cyno plasma sIL-6R (cynomolgus monkey, UniProt A0A2K5WN54 60-396).
T1 construct: also called cynomolgus sIL-6R
T1 sequence: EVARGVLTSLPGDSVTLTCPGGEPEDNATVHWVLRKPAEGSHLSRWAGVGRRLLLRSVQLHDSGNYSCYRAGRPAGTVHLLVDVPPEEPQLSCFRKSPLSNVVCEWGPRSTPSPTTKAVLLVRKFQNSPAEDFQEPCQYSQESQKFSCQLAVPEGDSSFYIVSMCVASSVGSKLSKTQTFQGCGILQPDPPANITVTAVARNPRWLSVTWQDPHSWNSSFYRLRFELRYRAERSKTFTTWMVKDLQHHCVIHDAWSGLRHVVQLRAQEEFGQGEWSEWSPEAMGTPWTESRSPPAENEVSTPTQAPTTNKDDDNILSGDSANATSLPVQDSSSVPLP
Put plainly: plasma potency assay, cyno plasma, 2.4 nM IL6; blocked ligand IL-6.
Protocol: (§1) All 5 affinity matured Nanobodies and the sequence optimized Nanobody were also tested in a plasma potency assay. […] TMB was used as substrate.

The target of assay [2] is T2, Human plasma sIL-6R (human, UniProt P08887 20-355, limits assumed).
T2 construct: also called plasma-derived human IL-6R
T2 sequence (looked up): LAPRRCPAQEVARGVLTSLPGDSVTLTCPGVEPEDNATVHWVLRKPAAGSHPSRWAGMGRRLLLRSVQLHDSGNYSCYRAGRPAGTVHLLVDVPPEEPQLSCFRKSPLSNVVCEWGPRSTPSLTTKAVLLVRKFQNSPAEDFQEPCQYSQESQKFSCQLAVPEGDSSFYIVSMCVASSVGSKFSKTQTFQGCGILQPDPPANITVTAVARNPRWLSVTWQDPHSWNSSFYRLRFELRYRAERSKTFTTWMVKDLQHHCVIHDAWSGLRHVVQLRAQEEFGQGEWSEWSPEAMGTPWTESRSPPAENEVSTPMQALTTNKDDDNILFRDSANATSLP
Put plainly: plasma potency assay, human plasma, 42 nM IL6; blocked ligand IL-6.
Protocol: as §1

Assay [3] concerns the target T2, Human plasma sIL-6R. Put plainly: plasma potency assay, human plasma, 2.4 nM IL6; blocked ligand IL-6.
Protocol: as §1
Assay [4] deals with T3, Human soluble IL-6R (human, UniProt P08887 20-358).
T3 construct: Soluble recombinant form; biotinylated in some assays; also called hIL-6R; human IL-6R
T3 sequence (looked up): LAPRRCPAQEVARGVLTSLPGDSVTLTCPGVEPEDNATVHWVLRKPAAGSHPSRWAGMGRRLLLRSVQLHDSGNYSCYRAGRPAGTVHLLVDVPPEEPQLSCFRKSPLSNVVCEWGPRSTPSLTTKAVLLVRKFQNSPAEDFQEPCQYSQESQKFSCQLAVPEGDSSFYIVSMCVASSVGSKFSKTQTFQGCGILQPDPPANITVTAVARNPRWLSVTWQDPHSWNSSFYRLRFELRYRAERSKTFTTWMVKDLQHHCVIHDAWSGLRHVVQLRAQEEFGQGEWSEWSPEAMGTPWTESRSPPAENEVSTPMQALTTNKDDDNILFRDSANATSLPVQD
Nature of the assay: SPR (Biacore), binding curves at several concentrations of purified Nanobody on IL-6R.

The target of assay [5] is T2, Human plasma sIL-6R. Put plainly: plasma potency assay, human plasma, 42 nM IL6; sIL-6R captured on BN-12, bound IL-6 detected; blocked ligand IL-6.
Assay [6] addresses T1, Cyno plasma sIL-6R. Put plainly: plasma potency assay, cyno plasma ([IL6R]: ~0.4 nM, [IL6]: 2.4 nM printed); sIL-6R captured on BN-12, bound IL-6 detected; blocked ligand IL-6.
For assay [7], the target named is T2, Human plasma sIL-6R. Nature of the assay: plasma potency assay, human plasma ([IL6R]: ~0.4 nM, [IL6]: 2.4 nM printed); sIL-6R captured on BN-12, bound IL-6 detected; blocked ligand IL-6.
The target in assay [8] is T3, Human soluble IL-6R. Put plainly: Biacore, binding to IL-6R.
Assay [9] addresses T3, Human soluble IL-6R. Put plainly: Alphascreen IL-6/IL-6R competition (IL-6R 0.3 nM, bio-IL-6 3 nM); row EC50 of the fit table, axis [competitor], M; blocked ligand IL-6.
Assay [10] deals with T4, Human membrane IL-6R on cells (human, UniProt P08887 20-468).
T4 sequence (looked up): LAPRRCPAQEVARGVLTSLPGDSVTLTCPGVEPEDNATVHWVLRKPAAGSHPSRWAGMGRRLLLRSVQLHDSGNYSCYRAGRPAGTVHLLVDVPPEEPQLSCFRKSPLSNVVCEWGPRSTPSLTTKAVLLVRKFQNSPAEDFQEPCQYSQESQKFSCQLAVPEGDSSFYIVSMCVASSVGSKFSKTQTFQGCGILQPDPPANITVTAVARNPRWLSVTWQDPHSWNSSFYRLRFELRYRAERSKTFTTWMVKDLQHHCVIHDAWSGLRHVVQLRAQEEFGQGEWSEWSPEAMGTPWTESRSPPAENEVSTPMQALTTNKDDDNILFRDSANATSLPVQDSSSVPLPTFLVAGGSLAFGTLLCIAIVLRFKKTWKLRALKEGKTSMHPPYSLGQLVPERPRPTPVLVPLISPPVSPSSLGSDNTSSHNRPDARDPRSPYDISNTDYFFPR
Nature of the assay: cell-based or functional assay.

Assay [11] addresses T3, Human soluble IL-6R. Nature of the assay: Biacore off-rate, periplasmic extracts.
For assay [12], the target named is T3, Human soluble IL-6R. Nature of the assay: SPR Biacore 3000, human IL-6R amine-coupled to CM5.
Protocol: Remaining reactive groups were inactivated. Nanobody binding was assessed at various concentrations ranging from 0.5 to 50 nM. Each sample was injected for 4 min at a flow rate of 45 μl/min to allow for binding to chip-bound antigen. Next, binding buffer without Nanobody was sent over the chip at the same flow rate to allow for dissociation of bound Nanobody.
Assay [13] addresses T3, Human soluble IL-6R. Put plainly: Alphascreen IL-6/IL-6R competition with purified Nanobody; row EC50 of the table, axis [inhibitor], M; blocked ligand IL-6.
Assay [14] concerns the target T3, Human soluble IL-6R. Put plainly: Alphascreen IL-6/IL-6R competition (IL-6R 0.3 nM, bio-IL-6 3 nM); row EC50 of the fit table, axis [competitor], M; blocked ligand IL-6. The source holds these as a separate data set.

B1: PMP7D6 (VHH)
VHH: EVQLVESGGGLVQPGGSLRLSCAASGSIFRVNVMAWYRQAPGKGRELVAAVINGGTTTYADSVKGRFTISRDNAKNTLYLQMNSLRPEDTAVYYCAFVTTNSDYDLGRDYWGQGTLVTVSS
notes: not shown: c-myc and (His)6 tags
In the case of B1, the IC50 came to 0.13 nM in the assay with Cyno plasma sIL-6R [1]; 0.95 nM in the assay with Human plasma sIL-6R [2]; 0.25 nM in the assay with Human plasma sIL-6R [3]; 0.8 nM with Human plasma sIL-6R [5]; 0.09 nM with Cyno plasma sIL-6R [6]; 0.19 nM with Human plasma sIL-6R [7]. This molecule also came in with a dissociation constant Kd with Human soluble IL-6R [4] of 0.42 nM.

B2: PMP7G8 (VHH)
VHH: EVQLVESGGGLVQPGGSLRLSCAASGSTFRINVMAWYRQAPGKGRELVAGVINDGSTTYADSVKGRFTISRDNAKNTLYLQMNSLRPEDTAVYYCAFVTTNSDYDLGRDYWGQGTLVTVSS
notes: expressed with c-myc and (His)6 tags
Take B2: in the assay with Human soluble IL-6R [4], the equilibrium dissociation constant (Kd) worked out at 0.95 nM. Besides, the IC50 with Human plasma sIL-6R [5] was found to be 3.5 nM; with Cyno plasma sIL-6R [6] it was 0.14 nM; with Human plasma sIL-6R [7], 0.34 nM.

B3: PMP7G7 (VHH)
VHH: EVQLVESGGGLVQPGGSLRLSCAASGTTFKINIMAWYRQAPGKGRELVAGVITGGNTTYADSVKGRFTISRDNAKNTLYLQMNSLRPEDTAVYYCAFVTTNSDYDLGRDYWGQGTLVTVSS
notes: as for B2
In the assay with Human soluble IL-6R [4], B3 came in with a Kd of 0.56 nM. In addition, the concentration for half-maximal inhibition (IC50) with Human plasma sIL-6R [5] came out at 1.5 nM; with Cyno plasma sIL-6R [6], 0.11 nM; in the assay with Human plasma sIL-6R [7] it was 0.22 nM.

B4: IL6R81 (VHH)
VHH: EVQLVESGGGLVQPGGSLRLSCAASGFTFDDYGMSWVRQAPGRATEWVSAISWNGNNTYYTESMKGRFTISRDNAKNTVYLQMNSLRPEDTAVYYCVKGSTAIVGVPPTYPDEYDYWGQGTLVTVSS
In the assay with Human soluble IL-6R [8], B4 showed a Kd of 0.4 nM, a koff of 0.000128 s⁻¹ and a kon of 320000 M⁻¹ s⁻¹. Further, the IC50 in the assay with Human soluble IL-6R [9] was 0.0747 nM.

B5: IL6R88 (VHH)
VHH: EVQLVESGGGLVQPGGSLRLSCAASGFTFDDYGMSWVRQAPGKGTEWVSAISWNGNNTYYTESMKGRFTISRDNAKNTLYLQMNSLRPEDTAVYYCVKGSTAIVGVPPTYPDEYDYWGQGTLVTVSS
notes: tested as periplasmic extract and purified
For B5, in assay [10], the “IC50 values (nM), XG-1 assay” value was 3.3 nM. Moreover, the koff with Human soluble IL-6R [11] worked out at 0.00026 s⁻¹. Further, in the assay with Human soluble IL-6R [12], binding was characterised by a dissociation constant (Kd) of 0.9 nM, the koff was 0.000213 s⁻¹ and the kon worked out at 230000 M⁻¹ s⁻¹. The molecule further came in with an IC50 with Human soluble IL-6R [13] of 0.0727 nM.

B6: IL6R83 (VHH)
VHH: EVQLVESGGGLVQPGGSLRLSCAASGFTFDDYGMSWVRQAPGRATEWVSAISWNGNNTYYTESMKGRFTISRDNAKNTLYLQMNSLRPEDTAVYYCVKGSTAIVGVPPTYPDEYDYWGQGTLVTVSS
On to B6, for which, in the assay with Human soluble IL-6R [8], binding was put at a Kd of 0.3 nM, the koff is 0.00012 s⁻¹ and the kon was determined as 350000 M⁻¹ s⁻¹. Besides, the 50% inhibitory concentration (IC50) with Human soluble IL-6R [9] came out at 0.0779 nM.

B7: IL6R84 (VHH)
VHH: EVQLVESGGGLVQPGGSLRLSCAASGFTFDDYGMSWVRQAPGKGLEWVSAISWNGNNTYYTESMKGRFTISRDNAKNTLYLQMNSLRPEDTAVYYCVKGSTAIVGVPPTYPDEYDYWGQGTLVTVSS
In the assay with Human soluble IL-6R [8], B7 had a dissociation constant Kd of 5.4 nM, a koff of 0.00409 s⁻¹ and a kon of 762000 M⁻¹ s⁻¹. Also, the IC50 with Human soluble IL-6R [9] came out at 0.465 nM.

B8: IL6R82 (VHH)
VHH: EVQLVESGGGLVQPGGSLRLSCAASGFTFDDYGMSWVRQAPGKGLEWVSAISWNGNNTYYTESMKGRFTISRDNAKNTVYLQMNSLRPEDTAVYYCVKGSTAIVGVPPTYPDEYDYWGQGTLVTVSS
In the assay with Human soluble IL-6R [8], B8 displayed a Kd of 5.1 nM, a koff of 0.00314 s⁻¹ and a kon of 619000 M⁻¹ s⁻¹. For the same molecule, the IC50 in the assay with Human soluble IL-6R [9] is 0.476 nM.

B9: IL6R71 (VHH)
VHH: EVQLVESGGGLVQPGGSLRLSCAASGFTFDDYDIGWFRQAPGKGREGVSGISSSDGNTYYADSVKGRFTISSDNAKNTVYLQMNSLRPEDTAVYYCAAEPPDSSWYLDGSPEFFKYWGQGTLVTVSS
For the molecule B9, in the assay with Human soluble IL-6R [8], the Kd is 0.2 nM, the koff was 0.000153 s⁻¹ and the kon came out at 703000 M⁻¹ s⁻¹. Moreover, the IC50 in the assay with Human soluble IL-6R [14] turned out to be 0.153 nM.

B10: IL6R74 (VHH)
VHH: EVQLVESGGGLVQPGGSLRLSCAASGFTFDDYDIGWFRQAPGKGREGVSGISSSDGNTYYADSVKGRFTISSDNAKNTLYLQMNSLRPEDTAVYYCAAEPPDSSWYLDGSPEFFKYWGQGTLVTVSS
Turning to B10, in the assay with Human soluble IL-6R [8], binding was put at a Kd of 0.2 nM, the koff was determined as 0.000122 s⁻¹ and the kon came to 767000 M⁻¹ s⁻¹. The 50% inhibitory concentration (IC50) with Human soluble IL-6R [14] was 0.133 nM.

B11: IL6R75 (VHH)
VHH: EVQLVESGGGLVQPGGSLRLSCAASGFTFSDYDIGWFRQAPGKGREGVSGISSSDGNTYYADSVKGRFTISRDNAKNTLYLQMNSLRPEDTAVYYCAAEPPDSSWYLDGSPEFFKYWGQGTLVTVSS
notes: also called ILR7.5; not shown: tag (IL6R201 is called the tagless version of IL6R75)
As for B11, in [10], the “IC50 values (nM), XG-1 assay” value is 0.04 nM. In the assay with Human soluble IL-6R [12], the Kd worked out at 0.1 nM, the koff worked out at 0.0001 s⁻¹ and the kon came out at 1e+06 M⁻¹ s⁻¹. In the assay with Human soluble IL-6R [13], the concentration for half-maximal inhibition (IC50) came to 0.0432 nM.

B12: IL6R72 (VHH)
VHH: EVQLVESGGGLVQPGGSLRLSCAASGFTFSDYDIGWFRQAPGKGREGVSGISSSDGNTYYADSVKGRFTISSDNAKNTVYLQMNSLRPEDTAVYYCAAEPPDSSWYLDGSPEFFKYWGQGTLVTVSS
On to B12, for which, in the assay with Human soluble IL-6R [8], the Kd stood at 0.3 nM, the koff is 0.00018 s⁻¹ and the kon is 543000 M⁻¹ s⁻¹. The IC50 with Human soluble IL-6R [14] is 0.161 nM.

B13: IL6R73 (VHH)
VHH: EVQLVESGGGLVQPGGSLRLSCAASGFTFDDYDIGWFRQAPGKGREGVSGISSSDGNTYYADSVKGRFTISRDNAKNTVYLQMNSLRPEDTAVYYCAAEPPDSSWYLDGSPEFFKYWGQGTLVTVSS
Consider B13, for which, in the assay with Human soluble IL-6R [8], the Kd was determined as 0.3 nM, the koff amounted to 0.000233 s⁻¹ and the kon was 698000 M⁻¹ s⁻¹. In addition, in the assay with Human soluble IL-6R [14], the IC50 was 0.0916 nM.
